Results as given in patent US20140105889A1 (published 2014).

T1: human FcγRIIb (human, UniProt P31994 43-217, limits assumed)
T1 construct: also called FcgRIIb; FcγIIB
T1 sequence: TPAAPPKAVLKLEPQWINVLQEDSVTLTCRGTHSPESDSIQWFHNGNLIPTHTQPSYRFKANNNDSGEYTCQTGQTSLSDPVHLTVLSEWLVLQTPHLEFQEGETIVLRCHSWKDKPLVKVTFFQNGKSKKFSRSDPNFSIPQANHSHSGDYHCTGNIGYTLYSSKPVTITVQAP

T2: human FcγRIIa type H (human, UniProt P12318 36-217)
T2 construct: also called FcgRIIaH; FcγRIIa(H)
T2 sequence: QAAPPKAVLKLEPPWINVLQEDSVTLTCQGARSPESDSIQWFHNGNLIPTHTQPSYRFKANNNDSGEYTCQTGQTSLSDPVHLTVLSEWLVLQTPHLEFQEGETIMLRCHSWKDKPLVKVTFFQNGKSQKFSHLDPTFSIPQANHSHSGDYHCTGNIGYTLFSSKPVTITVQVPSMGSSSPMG


Assays:
Assay in all cases: SPR (Biacore); binding amount divided by that of control IL6R-BF648/IL6R-L, x100
human FcγRIa = target: T3, human FcγRIa (human, UniProt P12314 16-292, limits assumed)
T3 construct: also called FcgRIa; CD64
T3 sequence (P12314 16-292 limits assumed): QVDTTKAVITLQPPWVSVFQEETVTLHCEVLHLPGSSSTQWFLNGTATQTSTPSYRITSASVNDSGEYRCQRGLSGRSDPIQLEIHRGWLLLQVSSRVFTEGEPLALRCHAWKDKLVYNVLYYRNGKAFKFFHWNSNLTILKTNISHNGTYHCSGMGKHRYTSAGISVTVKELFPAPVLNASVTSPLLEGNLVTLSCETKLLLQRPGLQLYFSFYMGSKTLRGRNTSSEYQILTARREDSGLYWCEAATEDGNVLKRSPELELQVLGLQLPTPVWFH
Method: (§1) According to the following method, relative binding activities were calculated for the results of analyzing interactions with the respective FcγRs.

human FcγRIIIa type V = target: T4, human FcγRIIIa type V (human, UniProt P08637 17-208, limits assumed)
T4 construct: The assay used allotype V158; also called FcgRIIIaV; FcγRIIIa(V)
T4 sequence (P08637 other isoform, or with tags, fused parts or gaps limits assumed): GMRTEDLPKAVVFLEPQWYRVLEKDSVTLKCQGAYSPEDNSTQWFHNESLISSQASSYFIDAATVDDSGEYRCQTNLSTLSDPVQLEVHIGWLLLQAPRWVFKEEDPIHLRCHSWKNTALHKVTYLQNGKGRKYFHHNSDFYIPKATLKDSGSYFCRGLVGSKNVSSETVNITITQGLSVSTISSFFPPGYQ
Method: as §1

human FcγRIIb = target: T1, human FcγRIIb
Method: as §1

human FcγRIIa type H = target: T2, human FcγRIIa type H
Method: as §1

Binder | relative binding activity (human FcγRIa) | relative binding activity (human FcγRIIIa type V) | relative binding activity (human FcγRIIb) | relative binding activity (human FcγRIIa type H)
IL6R-BP213/IL6R-L (antibody, human IgG1, The common L chain is IL6R-L; copies: 2 + 2) heavy: QVQLQESGPGLVKPSETLSLTCAVSGHSISHDHAWSWVRQPPGEGLEWIGFISYSGITNYNPSLQGRVTISRDNSKNTLYLQMNSLRAEDTAVYYCARSLARTTAMDYWGEGTLVTVSSASTKGPSVFPLAPSSKSTSGGTAALGCLVKDYFPEPVTVSWNSGALTSGVHTFPAVLQSSGLYSLSSVVTVPSSSLGTQTYICNVNHKPSNTKVDKKVEPKSCDKTHTCPPCPAPDLLGGDSVFLFPPKPKDTLMISRTPEVTCVVVDVSDEDGEVKFNWYVDGVEVHNAKTKPREEQYNSTYRVVSVLTVLHQDWLNGKEYKCKVSNKALPRPIEKTISKAKGQPREPQVYTLPPSRDELTKNQVSLTCLVKGFYPSDIAVEWESNGQPENNYKTTPPVLDSDGSFFLYSKLTVDKSRWQQGNVFSCSVMHEALHNHYTQESLSLSP light: DIQMTQSPSSLSASVGDRVTITCRASQDISSYLNWYQQKPGKAPKLLIYYTSRLHSGVPSRFSGSGSGTDFTFTISSLQPEDIATYYCQQGNTLPYTFGQGTKVEIK | 118 % of IL6R-BF648/IL6R-L | 100 % of IL6R-BF648/IL6R-L | 169 % of IL6R-BF648/IL6R-L | 123 % of IL6R-BF648/IL6R-L
IL6R-BP194/IL6R-L (antibody, human IgG1, The common L chain is IL6R-L; copies: 2 + 2) heavy: QVQLQESGPGLVKPSETLSLTCAVSGHSISHDHAWSWVRQPPGEGLEWIGFISYSGITNYNPSLQGRVTISRDNSKNTLYLQMNSLRAEDTAVYYCARSLARTTAMDYWGEGTLVTVSSASTKGPSVFPLAPSSKSTSGGTAALGCLVKDYFPEPVTVSWNSGALTSGVHTFPAVLQSSGLYSLSSVVTVPSSSLGTQTYICNVNHKPSNTKVDKKVEPKSCDKTHTCPPCPAPDYLGDDSVFLFPPKPKDTLMISRTPEVTCVVVDVSDEDGEVKFNWYVDGVEVHNAKTKPREEQYNSTYRVVSVLTVLHQDWLNGKEYKCKVSNAALPKPIEKTISKAKGQPREPQVYTLPPSRDELTKNQVSLTCLVKGFYPSDIAVEWESNGQPENNYKTTPPVLDSDGSFFLYSKLTVDKSRWQQGNVFSCSVMHEALHNHYTQESLSLSP light: DIQMTQSPSSLSASVGDRVTITCRASQDISSYLNWYQQKPGKAPKLLIYYTSRLHSGVPSRFSGSGSGTDFTFTISSLQPEDIATYYCQQGNTLPYTFGQGTKVEIK | 69 % of IL6R-BF648/IL6R-L | 249 % of IL6R-BF648/IL6R-L | 178 % of IL6R-BF648/IL6R-L | 395 % of IL6R-BF648/IL6R-L
IL6R-BP187/IL6R-L (antibody, human IgG1, The common L chain is IL6R-L; copies: 2 + 2) heavy: QVQLQESGPGLVKPSETLSLTCAVSGHSISHDHAWSWVRQPPGEGLEWIGFISYSGITNYNPSLQGRVTISRDNSKNTLYLQMNSLRAEDTAVYYCARSLARTTAMDYWGEGTLVTVSSASTKGPSVFPLAPSSKSTSGGTAALGCLVKDYFPEPVTVSWNSGALTSGVHTFPAVLQSSGLYSLSSVVTVPSSSLGTQTYICNVNHKPSNTKVDKKVEPKSCDKTHTCPPCPAPEYLGGDSVFLFPPKPKDTLMISRTPEVTCVVVDVSHEDGEVKFNWYVDGVEVHNAKTKPREEQYNSTYRVVSVLTVLHQDWLNGKEYKCKVSNAALPKPIEKTISKAKGQPREPQVYTLPPSRDELTKNQVSLTCLVKGFYPSDIAVEWESNGQPENNYKTTPPVLDSDGSFFLYSKLTVDKSRWQQGNVFSCSVMHEALHNHYTQESLSLSP light: DIQMTQSPSSLSASVGDRVTITCRASQDISSYLNWYQQKPGKAPKLLIYYTSRLHSGVPSRFSGSGSGTDFTFTISSLQPEDIATYYCQQGNTLPYTFGQGTKVEIK | 68 % of IL6R-BF648/IL6R-L | 124 % of IL6R-BF648/IL6R-L | 157 % of IL6R-BF648/IL6R-L | 205 % of IL6R-BF648/IL6R-L
IL6R-BP192/IL6R-L (antibody, human IgG1, The common L chain is IL6R-L; copies: 2 + 2) heavy: QVQLQESGPGLVKPSETLSLTCAVSGHSISHDHAWSWVRQPPGEGLEWIGFISYSGITNYNPSLQGRVTISRDNSKNTLYLQMNSLRAEDTAVYYCARSLARTTAMDYWGEGTLVTVSSASTKGPSVFPLAPSSKSTSGGTAALGCLVKDYFPEPVTVSWNSGALTSGVHTFPAVLQSSGLYSLSSVVTVPSSSLGTQTYICNVNHKPSNTKVDKKVEPKSCDKTHTCPPCPAPDLLGGDSVFLFPPKPKDTLMISRTPEVTCVVVDVSDEDGEVKFNWYVDGVEVHNAKTKPREEQDNSTYRVVSVLTVLHQDWLNGKEYKCKVSNKALPKPIEKTISKAKGQPREPQVYTLPPSRDELTKNQVSLTCLVKGFYPSDIAVEWESNGQPENNYKTTPPVLDSDGSFFLYSKLTVDKSRWQQGNVFSCSVMHEALHNHYTQESLSLSP light: DIQMTQSPSSLSASVGDRVTITCRASQDISSYLNWYQQKPGKAPKLLIYYTSRLHSGVPSRFSGSGSGTDFTFTISSLQPEDIATYYCQQGNTLPYTFGQGTKVEIK | 109 % of IL6R-BF648/IL6R-L | 118 % of IL6R-BF648/IL6R-L | 172 % of IL6R-BF648/IL6R-L | 122 % of IL6R-BF648/IL6R-L
IL6R-BP189/IL6R-L (antibody, human IgG1, The common L chain is IL6R-L; copies: 2 + 2) heavy: QVQLQESGPGLVKPSETLSLTCAVSGHSISHDHAWSWVRQPPGEGLEWIGFISYSGITNYNPSLQGRVTISRDNSKNTLYLQMNSLRAEDTAVYYCARSLARTTAMDYWGEGTLVTVSSASTKGPSVFPLAPSSKSTSGGTAALGCLVKDYFPEPVTVSWNSGALTSGVHTFPAVLQSSGLYSLSSVVTVPSSSLGTQTYICNVNHKPSNTKVDKKVEPKSCDKTHTCPPCPAPELLGDDSVFLFPPKPKDTLMISRTPEVTCVVVDVSDEDGEVKFNWYVDGVEVHNAKTKPREEQYNSTYRVVSVLTVLHQDWLNGKEYKCKVSNAALPKPIEKTISKAKGQPREPQVYTLPPSRDELTKNQVSLTCLVKGFYPSDIAVEWESNGQPENNYKTTPPVLDSDGSFFLYSKLTVDKSRWQQGNVFSCSVMHEALHNHYTQESLSLSP light: DIQMTQSPSSLSASVGDRVTITCRASQDISSYLNWYQQKPGKAPKLLIYYTSRLHSGVPSRFSGSGSGTDFTFTISSLQPEDIATYYCQQGNTLPYTFGQGTKVEIK | 56 % of IL6R-BF648/IL6R-L | 141 % of IL6R-BF648/IL6R-L | 177 % of IL6R-BF648/IL6R-L | 183 % of IL6R-BF648/IL6R-L

Second part, the binder after the results:

relative binding activity (human FcγRIa) | relative binding activity (human FcγRIIIa type V) | relative binding activity (human FcγRIIb) | relative binding activity (human FcγRIIa type H) | Binder
89 % of IL6R-BF648/IL6R-L | 137 % of IL6R-BF648/IL6R-L | 157 % of IL6R-BF648/IL6R-L | 195 % of IL6R-BF648/IL6R-L | IL6R-BP196/IL6R-L (antibody, human IgG1, The common L chain is IL6R-L; copies: 2 + 2) heavy: QVQLQESGPGLVKPSETLSLTCAVSGHSISHDHAWSWVRQPPGEGLEWIGFISYSGITNYNPSLQGRVTISRDNSKNTLYLQMNSLRAEDTAVYYCARSLARTTAMDYWGEGTLVTVSSASTKGPSVFPLAPSSKSTSGGTAALGCLVKDYFPEPVTVSWNSGALTSGVHTFPAVLQSSGLYSLSSVVTVPSSSLGTQTYICNVNHKPSNTKVDKKVEPKSCDKTHTCPPCPAPEYLGGDSVFLFPPKPKDTLMISRTPEVTCVVVDVSDEDGEVKFNWYVDGVEVHNAKTKPREEQYNSTYRVVSVLTVLHQDWLNGKEYKCKVSNAALPKPIEKTISKAKGQPREPQVYTLPPSRDELTKNQVSLTCLVKGFYPSDIAVEWESNGQPENNYKTTPPVLDSDGSFFLYSKLTVDKSRWQQGNVFSCSVMHEALHNHYTQESLSLSP light: DIQMTQSPSSLSASVGDRVTITCRASQDISSYLNWYQQKPGKAPKLLIYYTSRLHSGVPSRFSGSGSGTDFTFTISSLQPEDIATYYCQQGNTLPYTFGQGTKVEIK
71 % of IL6R-BF648/IL6R-L | 206 % of IL6R-BF648/IL6R-L | 179 % of IL6R-BF648/IL6R-L | 294 % of IL6R-BF648/IL6R-L | IL6R-BP197/IL6R-L (antibody, copies: 2 + 2) heavy: QVQLQESGPGLVKPSETLSLTCAVSGHSISHDHAWSWVRQPPGEGLEWIGFISYSGITNYNPSLQGRVTISRDNSKNTLYLQMNSLRAEDTAVYYCARSLARTTAMDYWGEGTLVTVSSASTKGPSVFPLAPSSKSTSGGTAALGCLVKDYFPEPVTVSWNSGALTSGVHTFPAVLQSSGLYSLSSVVTVPSSSLGTQTYICNVNHKPSNTKVDKKVEPKSCDKTHTCPPCPAPDYLGDDSVFLFPPKPKDTLMISRTPEVTCVVVDVSDEDGEVKFNWYVDGVEVHNAKTKPREEQDNSTYRVVSVLTVLHQDWLNGKEYKCKVSNDALPKPIEKTISKAKGQPREPQVYTLPPSRDELTKNQVSLTCLVKGFYPSDIAVEWESNGQPENNYKTTPPVLDSDGSFFLYSKLTVDKSRWQQGNVFSCSVMHEALHNHYTQESLSLSP light: DIQMTQSPSSLSASVGDRVTITCRASQDISSYLNWYQQKPGKAPKLLIYYTSRLHSGVPSRFSGSGSGTDFTFTISSLQPEDIATYYCQQGNTLPYTFGQGTKVEIK
128 % of IL6R-BF648/IL6R-L | 87 % of IL6R-BF648/IL6R-L | 165 % of IL6R-BF648/IL6R-L | – | IL6R-BP211/IL6R-L (antibody, human IgG1, The common L chain is IL6R-L; copies: 2 + 2) heavy: QVQLQESGPGLVKPSETLSLTCAVSGHSISHDHAWSWVRQPPGEGLEWIGFISYSGITNYNPSLQGRVTISRDNSKNTLYLQMNSLRAEDTAVYYCARSLARTTAMDYWGEGTLVTVSSASTKGPSVFPLAPSSKSTSGGTAALGCLVKDYFPEPVTVSWNSGALTSGVHTFPAVLQSSGLYSLSSVVTVPSSSLGTQTYICNVNHKPSNTKVDKKVEPKSCDKTHTCPPCPAPDLLGGDSVFLFPPKPKDTLMISRTPEVTCVVVDVSDEDGEVKFNWYVDGVEVHNAKTKPREEQYNSTYRVVSVLTVLHQDWLNGKEYKCKVSNAALPRPIEKTISKAKGQPREPQVYTLPPSRDELTKNQVSLTCLVKGFYPSDIAVEWESNGQPENNYKTTPPVLDSDGSFFLYSKLTVDKSRWQQGNVFSCSVMHEALHNHYTQESLSLSP light: DIQMTQSPSSLSASVGDRVTITCRASQDISSYLNWYQQKPGKAPKLLIYYTSRLHSGVPSRFSGSGSGTDFTFTISSLQPEDIATYYCQQGNTLPYTFGQGTKVEIK
